Laboratory results: PMC5985294

Molecular target: Neutrophil elastase (NE), active, human (human) (UniProt P08246)
Sequence of UniProt P08246 (P08246 30-267): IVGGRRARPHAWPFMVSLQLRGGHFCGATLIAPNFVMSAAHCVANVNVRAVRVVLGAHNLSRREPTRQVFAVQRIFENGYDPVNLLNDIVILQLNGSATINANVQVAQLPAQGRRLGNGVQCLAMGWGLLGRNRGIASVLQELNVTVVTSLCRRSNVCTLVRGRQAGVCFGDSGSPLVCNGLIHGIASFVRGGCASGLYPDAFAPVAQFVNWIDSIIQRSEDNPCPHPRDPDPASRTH

Row | IC50 of inhibition of NE (5 nM) degradation of fluorogenic elastase substrate V (MeOSuc-Ala-Ala-Pro-Val-AMC), after 30 min pre-incubation at 37°C [nM] | IC50 of inhibition of NE (5 nM) gelatinolytic activity, DQ-gelatin degradation, with 50 µM SB-3CT [nM] | Substance
1 | 76.3 | 51.2 | MMP-9-treated SLPI, MMP-9/SLPI molar ratio 1/5 (from UniProt P03973 26-41; P03973 42-96; P03973 97-132)
2 | 28.9 | 5.24 | MMP-9-treated SLPI, MMP-9/SLPI molar ratio 1/20 (from UniProt P03973 26-96; P03973 97-132)
3 | 8.71 | 0.97 | Secretory leukocyte peptidase inhibitor (SLPI), intact (from UniProt P03973 26-132) (natural protein)
